Laboratory results reported in paper PMC6331220.

Molecular target: T1, BsSsbA (Bacillus subtilis, UniProt P37455 1-104)
T1 sequence: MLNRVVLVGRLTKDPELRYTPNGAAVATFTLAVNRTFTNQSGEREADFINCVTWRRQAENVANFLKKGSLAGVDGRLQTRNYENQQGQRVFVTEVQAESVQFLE
Assay: X-ray crystallography

**Q.** Does TTTTTTTTTTTTTTTTTTTTTTTTTTTTTTTTTTT (ssDNA) [dT35] bind?
**A.** Result: binds
